Here are results for 3 molecules from publication PMC9149338 (Cellular and Molecular Immunology, 2022).

The target of this assay is GST-importin α5 (aa 400–538) (human, UniProt P52294 400-538). The assay is described as follows: SPR. (In general: Surface plasmon resonance follows binding to a sensor surface in real time, without labels.)
GST-importin α5 (aa 400–538), sequence (P52294 400-538): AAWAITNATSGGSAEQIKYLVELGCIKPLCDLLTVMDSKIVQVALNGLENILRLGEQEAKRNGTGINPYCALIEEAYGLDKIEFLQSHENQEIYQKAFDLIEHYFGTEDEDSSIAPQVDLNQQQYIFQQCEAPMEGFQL

Turning to KAKTEEKDLKKLKKQEKEEKDFRKKFK [ADAP NLS2 peptide], binding was put at a Kd of 2.38 nM. The same measure, in the same setting: the value for KEREKKREKEEKKRLELEKKEQKEKEKKEQEIKKK [ADAP NLS1 peptide] was 2.67 nM. On to HLQLKEQKNA [STAT1 NLS peptide], for which the binding result is “binds”.
